# Test results: patent US20220119522A1
# Numbering of substitutions follows the chain as printed.
# T1: human TREM2 full length stalk region peptide (aa 129-172) (human)
# T1 sequence (peptide, biotinylated (site not stated)): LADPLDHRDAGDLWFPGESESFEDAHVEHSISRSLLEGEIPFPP
# T2: human TREM2 truncated stalk peptide (aa 149-163) (human)
# T2 sequence (peptide, biotinylated (site not stated)): SFEDAHVEHSISRSL
# B1: CL0020141 (antibody, V domains shown)
# VH: EVTLVESGGGLVQPGGSLRLSCATSGFTFTDYYMSWVRQPPGKALEWLGFIRDKANGYTTDYSASVKGRFTISRDNSQNILYLQMNTLRAEDSATYYCSRLLRAQGFAYWGQGTLVTVSA
# VL: DIVMSQSPSSLGVSIGEKVIMSCTSGQSLLYSNNQKNYLAWYQQKPGQSPKLLIYWASTRESGVPDRFTGSGSGTDFTLTINSVKAEDLAVYYCQQYYRNPFTFGSGTKLEIK
# B2: CL0020139 (antibody, V domains shown)
# VH: EVQLQQSGPELVKPGASVKMSCKAPGYSFTSYLMNWVKQKPGQGLEWIGYINPYSAGSNYNEKFKDKATLTSDKSSSTAYMELRSLTSEDSAVYFCARSSYRYGFDYWGQGTTLTVSS
# VL: DIQMTQSSSSFSVSLGDRVTITCKASEDIYNRLAWYQQKPGNAPRLLISGATSLETGVPSRFSGSGSGKDYTLSITSLQTEDVATYSCQQYWSTPWTFGGGTKLEIK
# B3: CL0020124 (antibody, V domains shown)
# VH: EVQLQQSGPVLVKPGASVKMSCKPSGYTFTDYYMNWVKQSHGKSLEWIGSINPYTGGSSYNQKFRGKATLTVDKSSSTAYMELNSLTSEDSAVYYCARGSYYSNLGFAYWGQGTLVTVSA
# VL: DVQLTQSPSYLTASPGETITINCRASKSISKYLAWYQEKPGKTNKLLISSGSTLQSGIPSRFSGSGSGTDFTLTISSLEPEDFAMYYCQQYSEYPFTFGSGTKLEIK
# B4: CL0020188 (antibody, V domains shown)
# VH: EVKLLDSGGGLVQAGGSLRLSCAGSGFTFTDFYMSWIRQPPGKAPEWLGVIRNKANGYTAGYNPSVKGRFTISRDNTQNILYLQMNTLRAEDTAIYYCARLTYGFDYWGQGVMVTVSS
# VL: DIVMTQGALPNPVPSGESASITCQSSKSLLHSNGKTYLNWYLQRPGQSPQLLIYWMSTRASGVSDRFSGSGSGTDFTLKISSVEAEDVGVYYCQQFLEYPFTFGSGTKLEIK
# B5: CL0020164 (antibody, V domains shown)
# VH: B4 VH with D6E, A14P, G24A, Y58F, A60T, G61E, P64T, N76Y, Y82H, M85T
# VL: B4 VL with L51F, Y99L
# B6: CL0020113 (antibody, V domains shown)
# VH: QIQLVQSGPELKKPGESLKISCKASGYTFTDYAMQWVKQAPGKGLQYMGWINTQTGKPTYADDFKERFVFSLETSASTAYLKINNLKNDDMATYLCARSYGGEYNWIAYWGQGTLVTVSS
# VL: DIVMTQTPSSQAVSAGEKVTMNCKSSQSLLYNENKKNYLAWYQQKPGQSPKLLIYWASTRESGVPDRFIGSGSGTDFTLTISSVQAEDLAVYYCQQSYNFPPTFGGGTKLELK
# B7: CL0020107 (antibody, V domains shown)
# VH: QVQLQQPGAELVKPGASVKMSCRASGYTFTNYWISWVKQRPGQGLEWIGDIYPHSTSTNYNERFRSKATLTVDKSSTTAYMQLSSLTSEDSAVYYCAREGFGISAWGQGTTLTVSS
# VL: QIVLTQSPAIMSASPGEKVTITCSATSSVSYMHWFQQKPGTSPKLWIYSTSNLASGVPARFSGSGSGTSHSLTISRMEAEDAATYYCQQRSSYPLTFGSGTKLELK
# B8: CL0020162 (antibody, V domains shown)
# VH: QIQLVQSGPELKKPGESLKISCKASGYTFTDYAMQWVKQAPEKGLQYMGWINTQTGKPTYADDFKERFVFSLETSATTAYLQINNLKNEDMATYFCVRSYNNYENWFAYWGQGTLVTVSS
# VL: DIVMTQSPSSLAVSAGETVTINCKSSQSLLYSGNQKNYLAWYQQKPGQSPKVLIYWASTRQFGVPDRFIGSGSGTDFTLTISSVQAEDLAIYYCQQYYNSPITFGSGTKLEIK
# B9: CL0020308 (antibody, V domains shown)
# VH: QVQLKQSGPSLVQPSQSLSITCTVSGFSLTTYGIHWVRQSPGKGLEWLGVIWTGGSTAFNAAFMSRLSITKDNSKSQVFFKMNSLQADDTAIYYCAKVGFHSATDYWGQGTSVTVSS
# VL: DVLMTQTPLSLPVTLGDQASISCRSSQNLVHSNGNTYLEWYLQKPGQSPKLLIYKVSNRFSGVPDRFSGSGSGTDFTLKISRVEAEDLGLYYCFQGSHVPFTFGSGTKLEIK
# B10: CL0020309 (antibody, V domains shown)
# VH: B9 VH with T31S, I34V, H35Q, S56T, A58D, M64K, T90S, V98I, T104V
# VL: B9 VL with T14S, L29I, S81N, V99I, K108Q
# B11: CL0020096 (antibody, V domains shown)
# VH: QIQLVQSGPELRKPGETVKISCKASGYTFTTYGMSWVKQAPGKGLKWMGWINTYSGLPRHSDDFKGRFAFSLETSASTAYLQINNLKNEDTATYFCAREVYYGSRKTAWFAYWGQGTLVTVSA
# VL: DLVMSQSPSSLAVSVGERVTMSCKSSQSLLYSNDQKNYLAWYQQIPGQSPKLLIYWASTRESGVPDRFTGSGSGTDFTLTISSVKAEDLAVYFCQQYYSYPPTFGAGTKLELK
# B12: CL0020103 (antibody, V domains shown)
# VH: EVQLQQSGPELVKPGASVKISCKTSGYTFTEYTMHWVKESHGKSLEWIGGINPNKGGSSYNQKFKGKATLTVDKSSSTAYMDLRRLTSEDSAVYYCARGGYEYYALDYWGQGTSVTVSS
# VL: B11 VL with L2I, A12T, N33R, D34N, I45K, T78S, F93Y, A106G, L112I
# B13: CL0020210 (antibody, V domains shown)
# VH: B11 VH
# VL: B11 VL with V19I, S22T, I54L, S99N
# Biological target: mouse TREM2 truncated stalk peptide (aa 149-163) (mouse) (UniProt Q99NH8)
# Test: ELISA on biotinylated peptide captured by streptavidin; A450 normalised to isotype control
row,fold over background (A450),Binder
1,1.4 fold,B1
2,1.6 fold,B2
3,1.7 fold,B3
4,0.9 fold,B4
5,1.5 fold,B5
6,1.3 fold,B6
7,1.6 fold,B7
8,1.4 fold,B8
9,1.1 fold,B9
10,1.3 fold,B10
11,1.3 fold,B11
12,1.8 fold,B12
13,1.6 fold,B13

# Biological target: T1, human TREM2 full length stalk region peptide (aa 129-172) (human)
# Test: as above
row,fold over background (A450),Binder
1,2.1 fold,B3

# Biological target: T2, human TREM2 truncated stalk peptide (aa 149-163) (human)
# Test: as above
row,fold over background (A450),Binder
1,2.1 fold,B1
2,3 fold,B4
3,2.5 fold,B9
4,2.2 fold,B10
5,2.2 fold,B11
